In FireProtDB (doi:10.1021/bi960863y):

Conditions: Escherichia coli (strain K12), pH 7, Urea, CD, Potassium phosphate 10 mM, reversible: yes (>95%)

Phosphocarrier protein HPr wild type, P0AA04
denaturant m value (0 °C): 1.29 kcal/mol/M | denaturant midpoint (higher = more stable) (0 °C): 4 M | unfolding free energy (0 °C): 4.63 kcal/mol | denaturant m value (5 °C): 1.18 kcal/mol/M | denaturant midpoint (higher = more stable) (5 °C): 4.38 M | unfolding free energy (5 °C): 5.08 kcal/mol | denaturant m value (10 °C): 1.36 kcal/mol/M | denaturant midpoint (higher = more stable) (10 °C): 4.58 M | unfolding free energy (10 °C): 5.31 kcal/mol | denaturant m value (25 °C): 1.19 kcal/mol/M | denaturant midpoint (higher = more stable) (25 °C): 4.58 M | unfolding free energy (25 °C): 5.31 kcal/mol | denaturant m value (30 °C): 1.14 kcal/mol/M | denaturant midpoint (higher = more stable) (30 °C): 4.32 M | unfolding free energy (30 °C): 5 kcal/mol | denaturant m value (35 °C): 1.01 kcal/mol/M | denaturant midpoint (higher = more stable) (35 °C): 4.04 M | unfolding free energy (35 °C): 4.68 kcal/mol | denaturant m value (40 °C): 1.06 kcal/mol/M | denaturant midpoint (higher = more stable) (40 °C): 3.58 M | unfolding free energy (40 °C): 4.14 kcal/mol | denaturant m value (45 °C): 1.01 kcal/mol/M | denaturant midpoint (higher = more stable) (45 °C): 2.9 M | unfolding free energy (45 °C): 3.37 kcal/mol | denaturant m value (50 °C): 1.11 kcal/mol/M | denaturant midpoint (higher = more stable) (50 °C): 2.09 M | unfolding free energy (50 °C): 2.42 kcal/mol
